# From patent US20200140538A1 (INSTITUTE FOR BASIC SCIENCE, published 2020)
# T1: mouse IL-2 (mIL-2) (mouse, UniProt P04351 21-169)
# T1 construct: Coated on the ELISA plate at 5 ug/ml
# T1 sequence (looked up): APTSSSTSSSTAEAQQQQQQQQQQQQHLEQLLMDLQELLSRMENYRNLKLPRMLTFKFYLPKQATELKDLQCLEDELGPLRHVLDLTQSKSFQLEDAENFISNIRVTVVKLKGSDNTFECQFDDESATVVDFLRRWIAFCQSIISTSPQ
# Columns and labels:
# [1] = molecular target: T2, human interleukin-2 (hIL-2) (human, UniProt P60568 21-153); assay: SPR, Biacore T100; antibody immobilized on a CM5 chip by amine coupling, hIL-2 flowed as 2-fold dilutions from 100 nM
# T2 construct: mature; The 133-residue length in the definition corresponds to the mature protein; also called human IL-2
# T2 sequence (P60568 21-153): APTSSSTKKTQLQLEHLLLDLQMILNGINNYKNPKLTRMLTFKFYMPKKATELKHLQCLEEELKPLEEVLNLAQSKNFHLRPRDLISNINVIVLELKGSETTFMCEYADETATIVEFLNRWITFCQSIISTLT
# Experimental: For detection of hIL-2, […] was used. 900 RU (Rmax=90) of anti-hIL-2 clones were immobilized on a CM5 chip by amine coupling. A 2-fold dilution (100 nM) of hIL-2 was allowed to flow on the chip at a rate of 10 μl/min for 3 minutes, and then dissociation of the hIL-2 was monitored for 10 minutes.
# [2] = molecular target: T1, mouse IL-2 (mIL-2); assay: ELISA on plate coated with mIL-2 (5 µg/ml), titrated mAb, detection with anti-mouse IgG HRP or anti-rat IgG HRP
# Experimental: In vivo mouse models were used to evaluate the therapeutic efficacy of a hIL-2/TCB2 mAb complex. […] First, the splenocytes of BALB/c mice immunized 3-4 times with hIL-2 over several weeks were fused with SP/2 myeloma cells. When the hybridoma colony was visualized, the culture supernatant was subjected to ELISA. 5 μg/ml of hIL-2 or mIL-2 was added to and mixed with PBS, and a total of 50 μl of the mixture was coated on an ELISA plate. Next, 200 μl of 10% FBS was added to the PBS and incubated at room temperature for 30 minutes in order to prevent non-specific binding, and a titrated dose of the monoclonal antibody was incubated for 30 minutes. The binding of the monoclonal antibody to the coated hIL-2 or mIL-2 was detected with anti-mouse IgG HRP or anti-rat IgG HRP. In each step, the plate was washed 3-5 times with 200 μl of PBS. As positive controls, commercially available monoclonal antibodies were used. As a positive control for hIL-2, Mab602 was used, and as positive controls for mIL-2, JES6-1 and S4B6 were used.
# [3] = molecular target: T2, human interleukin-2 (hIL-2); assay: ELISA on plate coated with hIL-2 (5 µg/ml), titrated mAb, detection with anti-mouse IgG HRP or anti-rat IgG HRP
# [4] = molecular target: T2, human interleukin-2 (hIL-2); assay: kinetic affinity for hIL-2, Set 1; method not given; Set 1
# [5] = molecular target: T2, human interleukin-2 (hIL-2); assay: kinetic affinity for hIL-2, Set 2; method not given
# [6] = molecular target: T2, human interleukin-2 (hIL-2); assay: kinetic affinity for hIL-2, Set 1; method not given
binder,measurement,setting,value
"MAB602 (antibody, from another filing, V domains shown) VH: EVQLQESGPGLVAPSQSLSITCTVSGFSLTNYDISWIRQPPGKGLEWLGVIWTGGGTNYNSGFMSRLSITKDNSKSQVFLKMNSLQTDDTAIYYCVRQGRTPYWGQGTLVTVSA VL: DIQVTQSPSSLSVSLGDRVTITCKASKDIYNRLAWYQQKPGNAPRLLISGATSLETGVPSRFSGSGSGKDYTLTITSLQTEDVATYYCQQFWGTPYTFGGGTKLEIKR",Kd,[1],0.213 nM
same,koff,[1],0.000948 s⁻¹
same,kon,[1],4.43e+06 M⁻¹ s⁻¹
same,EC50 (read off the curve),[2],0.03 mg/L
same,EC50 (read off the curve),[3],0.04 mg/L
"TCB2 monoclonal antibody (mouse TCB2) (antibody, V domains shown, Mouse hybridoma antibody from BALB/c mice immunized with hIL-2; It was detected with anti-mouse IgG HRP; also called TCB2 mAb; mTCB2) VH: EVQLQQSGAELARPGASVKLSCKASGYTFTTYWIQWVKQRPGQGLEWIGAIYPGDGDTRYIQNFKGKATLTADKSSSTAYMQLSSLASEDSAVYYCARSLATRGFYAMDYWGQGTSVTVSS VL: DIVMTQSPASLSMAIGEKVTIRCITSTDIDDDMNWYQQKPGEPPKLLISEGNTLRPGVPSRFSSSGYGTDFVFTIENMLSEDVADYYCLQSDNLPYTFGGGTKLEIK",Kd,[1],0.0811 nM
same,koff,[1],0.000419 s⁻¹
same,kon,[1],5.17e+06 M⁻¹ s⁻¹
same,binding result,[2],no binding (tested: 10000 ng/ml)
"S4B6 (antibody, V domains shown) VH: EVQLQESGAELVRPGTSVKLSCKVSGDTITAYYLHFVRQRPGQGLEWIGRIDPEDDSTKYAENFKNKATFTADASSNTAYLRLSSLTSEDTATYFCTTVTFYYSRELRWFAYWGQGTLVTVSS VL: DIQVTQSPASLSASLEEIVTITCQASQDIGNYLSWYQQKLGKSPQLLIHSATSLADGVPSRFSGSRSGTQYSLKINRLQVEDTGIYYCLQHYSTPYTFGAGTKLELK",EC50 (read off the curve),[2],~0.3 mg/L
"human chimeric TCB2 (antibody, human IgG2, kappa, V domains shown, The Fab region of TCB2 mAb was cloned into an IgG2 expression vector; also called hcTCB2) VH: EVQLQQSGAELARPGASVKLSCKASGYTFTTYWIQWVKQRPGQGLEWIGAIYPGDGDTRYIQNFKGKATLTADKSSSTAYMQLSSLASEDSAVYYCARSLATRGFYAMDYWGQGTSVTVSS VL: DIVMTQSPASLSMAIGEKVTIRCITSTDIDDDMNWYQQKPGEPPKLLISEGNTLRPGVPSRFSSSGYGTDFVFTIENMLSEDVADYYCLQSDNLPYTFGGGTKLEIKR",kon,[4],2.27e+07 M⁻¹ s⁻¹
same,Kd,[5],0.0616 nM
same,koff,[5],0.00141 s⁻¹
same,kon,[5],2.29e+07 M⁻¹ s⁻¹
same,Kd,[6],0.0717 nM
same,koff,[6],0.00163 s⁻¹
"humanized TCB2 clone VH1+VL2 (antibody, V domains shown, Humanized and expressed with human IgG1 Fc; also called VL2+VH1; hnTCB2) VH: QVQLVQSGAEVKKPGASVKVSCKASGYTFTTYWIQWVRQAPGQGLEWMGAIYPGDGDTRYIQNFKGRVTMTRDTSTSTVYMELSSLRSEDTAVYYCARSLATRGFYAMDYWGQGTLVTVSS VL: DIVMTQSPSSLSASVGDRVTIRCITSTDIDDDMNWYQQKPGKAPKLLISEGNTLRPGVPSRFSGSGYGTDFTFTISSLQPEDIADYYCLQSDNLPYTFGGGTKLEIK",Kd,[6],0.104 nM
same,koff,[6],0.00197 s⁻¹
same,kon,[6],1.89e+07 M⁻¹ s⁻¹
"humanized TCB2 clone AH03463 (VL03463+VH03463) (antibody, V domains shown, Humanized and expressed with human IgG1 Fc; also called hnTCB2) VH: EVQLVQSGAEVKKPGASVKVSCKASGYTFTTYWIQWVKQAPGQGLEWMGAIYPGDGDTRYIQNFKGRVTMTRDTSTSTVYMELSSLRSEDTAVYYCARSLATRGFYAMDYWGQGTLVTVSS VL: DIQMTQSPSSLSASVGDRVTITCITSTDIDDDMNWYQQKPGKAPKLLIYEGNTLRPGVPSRFSSSGSGTDFTFTISSLQPEDIATYYCLQSDNLPYTFGGGTKLEIK",Kd,[5],0.198 nM
same,koff,[5],0.00418 s⁻¹
same,kon,[5],2.11e+07 M⁻¹ s⁻¹
"humanized TCB2 clone VH2+VL2 (antibody, V domains shown, Humanized and expressed with human IgG1 Fc; also called VL2+VH2; hnTCB2) VH: QVQLVQSGAEVKKPGASVKLSCKASGYTFTTYWIQWVKQAPGQGLEWIGAIYPGDGDTRYIQNFKGRVTMTADTSTSTVYMELSSLRSEDTAVYYCARSLATRGFYAMDYWGQGTLVTVSS VL: DIVMTQSPSSLSASVGDRVTIRCITSTDIDDDMNWYQQKPGKAPKLLISEGNTLRPGVPSRFSGSGYGTDFTFTISSLQPEDIADYYCLQSDNLPYTFGGGTKLEIK",Kd,[6],0.275 nM
same,koff,[6],0.00463 s⁻¹
same,kon,[6],1.68e+07 M⁻¹ s⁻¹
